{
  "source": "the nanobody polyreactivity screen of Harvey et al. (2022)",
  "data": [
    {"test": "yeast display, Sf9 membrane polyspecificity reagent, FACS + sequencing; frameworks hold sequencing errors", "how_it_was_run": "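After 36–48 hours of galactose induction, yeast (Saccharomyces cerevisiae BJ5465) displaying a synthetic nanobody library were stained at 4 °C for 1 hour with 10% biotinylated, detergent-solubilized Sf9 membrane reagent. Streptavidin microbeads enriched the stained cells before FACS sorting into low and high (top ~1%) gates on anti-HA and streptavidin fluorescence. Each clone's polyreactivity label reflects its gate of origin.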", "values": [
      {"sequence": "QVQLVESGGGLVQAGGSLRLSCAASGRTLTYNVMGWYRQAPGKERELVASISSSGSSTHYADSVKGRFTISRDNAKNTVYLQMNSLKPEDTAVYYCAVEFWRPFWTRFDYWGQGTQVTVSS", "polyreactivity (PSR sort gate)": "high polyreactivity"},
      {"sequence": "QVQLVESGGGLVQAGGSLRLSCAASGRTLVSYAMGWYRQAPGKERELVATISWSGGSTYYADSVKGRFTISRDNAKNTVYLQMYSLKPEDTAVYYCNRSLTGYDELGYPVPYTYDYWGQATQVTVSS", "polyreactivity (PSR sort gate)": "low polyreactivity"},
      {"sequence": "QVQLVESGGGLVQAGGSLRLSCAASGRTLWVYAMGWYRQAPGKERELVAAITSSGVSTDYADSVKGRFTISRDNAKNTVYLQINSLKPEDTAVYYCAKRYWSRYAQYDYWGQGTQVTVSS", "polyreactivity (PSR sort gate)": "low polyreactivity"},
      {"sequence": "QVQLVESGGGLVQAGGSLRLSCAASGRTLWYYTMGWYRQAPGKERELVADITRGTSTNYADSVKGRFTISRDNAKNTVYLQMNSLKPEDTAVYSCNRAHGRSRYSRDYDSWGQGTQVTVSS", "polyreactivity (PSR sort gate)": "low polyreactivity"},
      {"sequence": "QVQLVESGGGLVQAGGSLRLSCAASGRTLYINAMGWYRQAPGKERELVAAIRRGGSTYADSVKGRFTISRDNAKNTVYLQMNSLKPEDTAVYYCAADVPRGKYKGDYWGQGTQVTVSS", "polyreactivity (PSR sort gate)": "high polyreactivity"},
      {"sequence": "QVQLVESGGGLVQAGGSLRLSCAASGRTLYLYAMGWYRQAPGKERELVAAITYGGGSTYYADSVKGRFTISRDNAKNTVYLQMNSLKPEDTAVYYCNAPGDGYLYDHTYDYWGQGTQVTVSS", "polyreactivity (PSR sort gate)": "low polyreactivity"},
      {"sequence": "QVQLVESGGGLVQAGGSLRLSCAASGRTLYLYAMGWYRQAPGKERELVAGITWSGGSTYYADSVKGRFTISRDNAKNTVYLQMNSLKPEDTAVYYCAAVSYPDYDYWGQGTQVTVSS", "polyreactivity (PSR sort gate)": "low polyreactivity"},
      {"sequence": "QVQLVESGGGLVQAGGSLRLSCAASGRTLYNYTMGWYRQAPGKERELVATINFSGGSTYYADSVKGRFTISRDNAKNTVYLQMNSLKPEDTAVYYCNARGYHYAYKGAYLGDDYWGQGTQVTVSS", "polyreactivity (PSR sort gate)": "low polyreactivity"},
      {"sequence": "QVQLVESGGGLVQAGGSLRLSCAASGRTLYRYAMGWYRQAPGKERELVAAIRSGGRTNYADSVKGRFTISRDNAKNTVYLLMNSLKPEDTAVYYCAARTLRYPSTYDYWGQGTQVSVSS", "polyreactivity (PSR sort gate)": "high polyreactivity"},
      {"sequence": "QVQLVESGGGLVQAGGSLRLSCAASGRTLYWYAMGWYRQAPGKEREFVAAITWRGGSTSYADSVKGRFTISRDNAKNTVYLQMNSLKPEDTAVYYCAASSFRSYYSGKYDYWGQGTQVTVSS", "polyreactivity (PSR sort gate)": "high polyreactivity"},
      {"sequence": "QVQLVESGGGLVQAGGSLRLSCAASGRTNKSNTLGWYRQEPGKQMELVAAISWRVGSTYYADSVKGRFTISRDNAKNTVYLQMNSLKPEDTAVYYCAARPWGYTVGSNYRYYLYGYWGLGTQVTVSS", "polyreactivity (PSR sort gate)": "high polyreactivity"},
      {"sequence": "QVQLVESGGGLVQAGGSLRLSCAASGRTSARYGMGWYRQAPGKERELVASIRRSGDSTYYADSVKGRFTISRDNAKNTVYLQLNSLKPEDTAVYYCAAGGKQGKRDYWGQGTQVTVSS", "polyreactivity (PSR sort gate)": "low polyreactivity"},
      {"sequence": "QVQLVESGGGLVQAGGSLRLSCAASGRTSFWNAMGWYRQAPGKERELVAAISASVGRTYYADSVKGRFTISRDNAKNTVYLQMNSLKPEDTAVYYCAKVYHAGTGYPSLGLDYWGQGTQVTVSS", "polyreactivity (PSR sort gate)": "low polyreactivity"},
      {"sequence": "QVQLVESGGGLVQAGGSLRLSCAASGRTSGFNTMGWYRQAPGKESELVAAISFSGGSTYYADSVKGRFTISRDNAKNTVYLHMNSLKPEDTAVYYCNALYRYLYRSGDYWGQGTQVTVSS", "polyreactivity (PSR sort gate)": "low polyreactivity"},
      {"sequence": "QVQLVESGGGLVQAGGSLRLSCAASGRTSGRYALGWYRQAPGKERELVAAITSSGGSTYYADSVKGRFTISRDTAKNTVYLQMNSLKPEDTAVYYCAAYFRGTGLDRSYKYDYWGQGTQVTVSS", "polyreactivity (PSR sort gate)": "high polyreactivity"},
      {"sequence": "QVQLVESGGGLVQAGGSLRLSCAASGRTSGVYAMGWYRQAPGKERELVAAITSDSTYYADSVKGRFTISRDNAKNTVYLQMNSLKPEDTAVYYCAADSLARRYDYWGQGTQVTVSS", "polyreactivity (PSR sort gate)": "low polyreactivity"},
      {"sequence": "QVQLVESGGGLVQAGGSLRLSCAASGRTSIWNSMGWYRQAPGKERELVASISWSGGSTYYADSVKGRFTISRDNAKNTVYLQMNSLKPEDTAVSYCAKTAYFLVFNEHLHNKRYDSWGQGTQVTVSS", "polyreactivity (PSR sort gate)": "low polyreactivity"},
      {"sequence": "QVQLVESGGGLVQAGGSLRLSCAASGRTSNIYAMGWYRQAPGKERELVAAIRTGGSTNYADSVKGRFTISRDNAKNSVYLQMNSLKPEDTAVYYCAATSRRSRPAEEYWGQGTQVTVSS", "polyreactivity (PSR sort gate)": "high polyreactivity"},
      {"sequence": "QVQLVESGGGLVQAGGSLRLSCAASGRTSRNNVMGWYRQAPGKERELVAAITKRTDRTYYADSVKGRFTISRDNAKNTVYLQMNSLKPEDTAVYYCAADLSLSTGGRAFPTYGYWGQGTQVTVSS", "polyreactivity (PSR sort gate)": "high polyreactivity"},
      {"sequence": "QVQLVESGGGLVQAGGSLRLSCAASGRTSRQYAMGWYRQAPGKEREFVAAITWSDSGTYYADSVKGRFTISRDNAKNTVYLQMNSLKPEDTAVYYCAAERYLSFDRYLYEYYYWGQGTQVTVSS", "polyreactivity (PSR sort gate)": "low polyreactivity"},
      {"sequence": "QVQLVESGGGLVQAGGSLRLSCAASGRTSRVYAMGWYRQAPGTERELVAAITWRGGNTYYADSVKGRFTISRDHAKNTVYLQMNSMKPEDTAVYYCAADPWSYGSWHGDSWGQGTQVTVSS", "polyreactivity (PSR sort gate)": "high polyreactivity"},
      {"sequence": "QVQLVESGGGLVQAGGSLRLSCAASGRTSRYAMGWYRQAPGKERELVAAISRNGGTTSYADSVKGRFTISRDNAKNTVYLQMNSLKPEDTAVYYCNAYSAFVPPTRGYYWGQGTQVTVSS", "polyreactivity (PSR sort gate)": "high polyreactivity"},
      {"sequence": "QVQLVESGGGLVQAGGSLRLSCAASGRTSSIYTMGWYRQAPGKERELVAAINSGGRTYYADSVKGRFTISRDNAKNTVYLQMNSLKPEDTAVYYCAARRSTYYWGGVTYTYYWGQGTQVTVSS", "polyreactivity (PSR sort gate)": "high polyreactivity"},
      {"sequence": "QVQLVESGGGLVQAGGSLRLSCAASGRTSSSYAMGWSRQAPGKERELVASITSSGRTYYADSVKGRFTISRDNAKNTVYLQMNSLKPEDTAVYYCAAPFYRVRGWYARTPYGYWGQGTQVTVSS", "polyreactivity (PSR sort gate)": "high polyreactivity"},
      {"sequence": "QVQLVESGGGLVQAGGSLRLSCAASGRTSTRNAMGWYRQAPGKERELVAAITRSGGGTYYADSVKGRFTISRDNAKNTVYLQMNSLKPEDTAVYYCAADQRSPSDGYEYWGQGTQVTVSS", "polyreactivity (PSR sort gate)": "low polyreactivity"},
      {"sequence": "QVQLVESGGGLVQAGGSLRLSCAASGRTSVINAMGWYRQAPGKERELVATISRGGSTNYADSVKGRFTISRDNAKNTVYLQMNSLIPDDTAVYYCNADEQNESFIWSFTIIYDYWGQGTQVTVSS", "polyreactivity (PSR sort gate)": "low polyreactivity"},
      {"sequence": "QVQLVESGGGLVQAGGSLRLSCAASGRTSVIYAMGWYRKAPGKERELVASIRRGGSTSYADSVKGRFTISRDNAKNTVYLQMNSLKPEDTAVYYCAARKRSVYGTEYDYWGQGTQVTVSS", "polyreactivity (PSR sort gate)": "high polyreactivity"},
      {"sequence": "QVQLVESGGGLVQAGGSLRLSCAASGRTSVIYAMGWYRQAPGKERELVASIRRGGSTSYADSVKGRFTISRDNAKNTVYLQMNSLKPEDTAVYYCAARKRSVYGTEYDYWGQGTQVTVSS", "polyreactivity (PSR sort gate)": "high polyreactivity"},
      {"sequence": "QVQLVESGGGLVQAGGSLRLSCAASGRTSVWYTMGWYRQAPGKEREFVASITGSGTCYADSVKGRFTISRDNAKNTVYLQMNSLKPEDTAVYYCAAGGKYYTFGFRGGTYDYWGQGTQVTVSS", "polyreactivity (PSR sort gate)": "high polyreactivity"},
      {"sequence": "QVQLVESGGGLVQAGGSLRLSCAASGRTSVYNAMGWYRPAPGKERELVAAIRGGGGNTYYADSVKGRFTISRDNAKNTVYLQMNSLKPADTAVYYCAKGSVVYLLRGVKGHSMDYWGQGTQVTVSS", "polyreactivity (PSR sort gate)": "low polyreactivity"},
      {"sequence": "QVQLVESGGGLVQAGGSLRLSCAASGRTSVYNAMGWYRQAPGKERELVAAITYGGRTYYADSVKGRFTISRDNAKNTVYLQMNSLKPEDTAVYYCAAPFHPAYVGYDYWGQGTQVTVSS", "polyreactivity (PSR sort gate)": "low polyreactivity"},
      {"sequence": "QVQLVESGGGLVQAGGSLRLSCAASGRTSYGYAIGWYRQAPGKERELVAAITYGGGSTYYADSVKGRFTISRDNEKNTVYLQMNSLKPEDTAVYYCAADRTGSTLYTIRYYYWGQGTQVTVSS", "polyreactivity (PSR sort gate)": "low polyreactivity"},
      {"sequence": "QVQLVESGGGLVQAGGSLRLSCAASGRTSYSNAMGWYRQAPGKERELVAAISGSGVRTYYADSVKGRFTISRDNAKNTVYLQMNSLKPEDTAVYYCAAAGRYPALYGYWGQGTQVTVSS", "polyreactivity (PSR sort gate)": "high polyreactivity"},
      {"sequence": "QVQLVESGGGLVQAGGSLRLSCAASGRTSYTNAMGWYRQAPGKERELVAAINYSGGSTYYADSVKGRFTISRDNAKNTVYLQMNSLKPEDTAVSYCAAERYYWYTEMGYWGQGTQVTVSS", "polyreactivity (PSR sort gate)": "high polyreactivity"},
      {"sequence": "QVQLVESGGGLVQAGGSLRLSCAASGRTSYTNAMGWYRQAPGKERELVAAINYSGGSTYYADSVKGRFTISRDNAKNTVYLQMNSLKPEDTAVYYCAADWDWWYQEFDYWGQGTQVTVSS", "polyreactivity (PSR sort gate)": "high polyreactivity"},
      {"sequence": "QVQLVESGGGLVQAGGSLRLSCAASGRTYGFNVMGWYRQAPGKERELVAAISWSGGSTYYADSVKGRFTISRDNEKNTVYLQMNSLKPEDTAVYYCNKRYVHRYGYWGQGTQVTVSS", "polyreactivity (PSR sort gate)": "low polyreactivity"},
      {"sequence": "QVQLVESGGGLVQAGGSLRLSCAASGRTYGHDTMGWYRQAPGKERELVARISRTGSTKYADSVKGRFTISRDNAKNTVYLQMNCLTPEDTAVYYCARVQAGGYGERVYAYHFDYWGQGTQVTVSS", "polyreactivity (PSR sort gate)": "high polyreactivity"},
      {"sequence": "QVQLVESGGGLVQAGGSLRLSCAASGRTYGYAMGWYRQAPGKERELVARITWRGGSTSYADSVKGRFTISRDNAKNTVYLQMNSLKPEDTAVYYCAAGFYFPVYTYVRKRYYYWGQGTQVTVSS", "polyreactivity (PSR sort gate)": "high polyreactivity"},
      {"sequence": "QVQLVESGGGLVQAGGSLRLSCAASGRTYGYAMGWYRQAPGKERELVARITWRGGSTSYADSVKGRFTISRENAKNTVYLQMNSLKPEDTAVYYCAAGFNSSDWHYYYRGQGTQVTVSS", "polyreactivity (PSR sort gate)": "high polyreactivity"},
      {"sequence": "QVQLVESGGGLVQAGGSLRLSCAASGRTYIYNAMGWYRQAPGKERELVAAISFRGGSTYYADSVKGRFTISRDNAKNTVYLQMNSLKPEDTAVYYCNAVRFYRYGWGQGTQVTVSS", "polyreactivity (PSR sort gate)": "high polyreactivity"},
      {"sequence": "QVQLVESGGGLVQAGGSLRLSCAASGRTYLYYVMGWYIQAPGKEREVVAAISYSGGSTYYADSVKGRFTISRDNAKNTVYLQMNSLKPEDTAVYYCTAVPVVRAGHGYDSWGQGTQVTVSS", "polyreactivity (PSR sort gate)": "high polyreactivity"},
      {"sequence": "QVQLVESGGGLVQAGGSLRLSCAASGRTYNTNAMGWYRQAPGKERELVAAISGGGSTYADSVKGRFTISRDNAKNTVYLQMNSLKPEDTAVYYCAAQNVWFYGFWRDYWGQGTQVTVSS", "polyreactivity (PSR sort gate)": "low polyreactivity"},
      {"sequence": "QVQLVESGGGLVQAGGSLRLSCAASGRTYPAYAMGWYRQAPGKERELVAAITYDGGTTYYADSVKVRFTISRDNAKNTVYLQMNSLKPEDTAVYYSAAVYDEDQYDYWGQGTQVTVSS", "polyreactivity (PSR sort gate)": "low polyreactivity"}
    ]}
  ]
}
